Experiments:
[1] = molecular target: p150glued (UniProt Q14203); test: HA immunoprecipitation, p150glued immunoblot; details: reference: HA-EB1 wild type; sites S40,T154,T206
[2] = molecular target: CLIP-170 (cytoplasmic linker protein 170) (UniProt P30622); test: HA immunoprecipitation, CLIP-170 immunoblot; details: reference: HA-EB1 wild type; sites S40,T154,T206

## EB1 (end-binding protein 1) (from UniProt Q15691) HA-EB1 3A (S40A/T154A/T206A)
[1]
  binding against the reference: weaker
[2]
  binding against the reference: weaker
